Test results as given in the supplement of paper PMC11246515.
± gives the standard deviation of the averaged measurements.

Test: total protein half-life in vivo (active degradation + dilution); higher = more stable protein
[1] = E. coli NCM3722 delta-clpP delta-lon delta-hslV, growth: N-lim chemostat, doubling time 6 h
[2] = E. coli NCM3722 delta-hslV, growth: N-lim chemostat, doubling time 6 h
[3] = E. coli NCM3722 delta-smpB, growth: N-lim chemostat, doubling time 6 h
[4] = wild type E. coli NCM3722, growth: C-lim chemostat, doubling time 3 h
[5] = wild type E. coli NCM3722, growth: C-lim chemostat, doubling time 12 h
[6] = wild type E. coli NCM3722, growth: N-lim chemostat, doubling time 6 h
[7] = wild type E. coli NCM3722, growth: N-lim chemostat, doubling time 12 h
[8] = wild type E. coli NCM3722, growth: P-lim chemostat, doubling time 6 h
[9] = wild type E. coli NCM3722, growth: P-lim chemostat, doubling time 12 h
[10] = wild type E. coli NCM3722, growth: C-lim chemostat, doubling time 6 h
[11] = E. coli NCM3722 delta-clpP, growth: N-lim chemostat, doubling time 6 h

| Sequence | total protein half-life in vivo [1] | total protein half-life in vivo [2] | total protein half-life in vivo [3] | total protein half-life in vivo [4] | total protein half-life in vivo [5] | total protein half-life in vivo [6] | total protein half-life in vivo [7] | total protein half-life in vivo [8] | total protein half-life in vivo [9] | total protein half-life in vivo [10] | total protein half-life in vivo [11] | total protein half-life in vivo (E. coli NCM3722 delta-lon, growth: N-lim chemostat, doubling time 6 h) |
| --- | --- | --- | --- | --- | --- | --- | --- | --- | --- | --- | --- | --- |
| MRFLLGVLMLMISGSALATIDVLQFKDEAQEQQFRQLTEELRCPKCQNNSIADSNSMIATDLRQKVYELMQEGKSKKEIVDYMVARYGNFVTYDPPLTPLTVLLWVLPVVAIGIGGWVIYARSRRRVRVVPEAFPEQSVPEGKRAGYVVYLPGIVVALIVAGVSYYQTGNYQQVKIWQQATAQAPALLDRALDPKADPLNEEEMSRLALGMRTQLQKNPGDIEGWIMLGRVGMALGNASIATDAYATAYRLDPKNSDAALGYAEALTRSSDPNDNRLGGELLRQLVRTDHSNIRVLSMYAFNAFEQQRFGEAVAAWEMMLKLLPANDTRRAVIERSIAQAMQHLSPQESK [P0ABM9] | 3.85 ± 0.42 h | 3.5 ± 0.5 h | 3.32 ± 0.057 h | 3.26 ± 0.15 h | 9.451 ± 0.016 h | 3.8 ± 0.21 h | 5.979 ± 0.034 h | 3.91 ± 0.59 h | 6.58 ± 1.2 h | – | – | – |
| MRFMQRSKDSLAKWLSAILPVVIVGLVGLFAVTVIRDYGRASEADRQALLEKGNVLIRALESGSRVGMGMRMHHVQQQALLEEMAGQPGVLWFAVTDAQGIIILHSDPDKVGRALYSPDEMQKLKPEENSRWRLLGKTETTPALEVYRLFQPMSAPWRHGMHNMPRCNGKAVPQVDAQQAIFIAVDASDLVATQSGEKRNTLIILFALATVLLASVLSFFWYRRYLRSRQLLQDEMKRKEKLVALGHLAAGVAHEIRNPLSSIKGLAKYFAERAPAGGEAHQLAQVMAKEADRLNRVVSELLELVKPTHLALQAVDLNTLINHSLQLVSQDANSREIQLRFTANDTLPEIQADPDRLTQVLLNLYLNAIQAIGQHGVISVTASESGAGVKISVTDSGKGIAADQLDAIFTPYFTTKAEGTGLGLAVVHNIVEQHGGTIQVASQEGKGSTFTLWLPVNITRKDPQG | 5.89 h | 6.11 ± 0.45 h | 5.27 ± 0.29 h | 3.57 ± 0.24 h | 13.4 ± 2.7 h | 5.12 h | 14.1 h | – | 11.4 ± 0.38 h | 4.91 h | – | – |
| MRFSHRLFLLLILLLTGAPILAQEPSDVAKNVRMMVSGIVSYTRWPALSGPPKLCIFSSSRFSTALQENAATSLPYLPVIIHTQQEAMISGCNGFYFGNESPTFQMELTEQYPSKALLLIAEQNTECIIGSAFCLIIHNNDVRFAVNLDALSRSGVKVNPDVLMLARKKNDG | 3.28 ± 0.12 h | 2.98 ± 0.17 h | 3.1 h | – | 6.32 h | 2.98 h | 4.75 h | 5 h | 6.03 ± 0.098 h | > 8 h | – | – |
| MRFSRFIIGLTSCIAFSVQAANVDEYITQLPAGANLALMVQKVGASAPAIDYHSQQMALPASTQKVITALAALIQLGPDFRFTTTLETKGNVENGVLKGDLVARFGADPTLKRQDIRNMVATLKKSGVNQIDGNVLIDTSIFASHDKAPGWPWNDMTQCFSAPPAAAIVDRNCFSVSLYSAPKPGDMAFIRVASYYPVTMFSQVRTLPRGSAEAQYCELDVVPGDLNRFTLTGCLPQRSEPLPLAFAVQDGASYAGAILKDELKQAGITWSGTLLRQTQVNEPGTVVASKQSAPLHDLLKIMLKKSDNMIADTVFRMIGHARFNVPGTWRAGSDAVRQILRQQAGVDIGNTIIADGSGLSRHNLIAPATMMQVLQYIAQHDNELNFISMLPLAGYDGSLQYRAGLHQAGVDGKVSAKTGSLQGVYNLAGFITTASGQRMAFVQYLSGYAVEPADQRNRRIPLVRFESRLYKDIYQNN | 6.48 ± 0.36 h | 6.87 ± 0.72 h | 6.051 ± 0.02 h | 3.24 ± 0.54 h | 12.7 ± 0.72 h | 6.15 ± 0.52 h | 13.4 ± 0.64 h | 6.25 ± 0.55 h | 12.6 ± 0.42 h | 6.21 ± 0.86 h | 6.25 ± 0.35 h | 6.194 ± 0.044 h |
| MRFSTQMMYQQNMRGITNSQAEWMKYGEQMSTGKRVVNPSDDPIAASQAVVLSQAQAQNSQYTLARTFATQKVSLEESVLSQVTTAIQNAQEKIVYASNGTLSDDDRASLATDIQGLRDQLLNLANTTDGNGRYIFAGYKTETAPFSEEKGKYVGGAESIKQQVDASRSMVIGHTGDKIFDSITSNAVAEPDGSASETNLFAMLDSAIAALKTPVADSEADKETAAAALDKTNRGLKNSLNNVLTVRAELGTQLNELESLDSLGSDRALGQTQQMSDLVDVDWNATISSYIMQQTALQASYKAFTDMQGLSLFQLSK | 2.65 ± 0.11 h | – | – | 0.265 ± 0.026 h | 0.399 ± 0.39 h | – | – | – | – | 0.393 ± 0.063 h | > 8 h | – |
| MRGKILLYQLKYRWQSLSIFGCFLCKMTLFRYQKIIYDTGVHQMRSFFYTICSSEQQESITDHHSLAEICQKFNILPEHVVIEQVDIKEVVSEQRLLRQLIHHEMNRQDTLVIPDLSCLGRTVEDLQNILFFCLQKEMFIYSYHPASRIEPSAESCLSFLIARQDTIDIHNLKSTKSRYRHVKKKLGRKEGSKYRRDITILKKGGFTQAEIAKKLSISLSTVKRHWNNGIIG | 6.03 h | – | – | – | – | – | – | – | – | – | – | – |
